The numbers were not newly measured in PMC12461627, “Locking CBL TKBD in its native conformation presents a novel therapeutic opportunity in mutant CBL-dependent leukemia” (Molecular Therapy, 2025), which cites them from elsewhere.

One may read the Kd as a measure of binding affinity in units of concentration.

The target of this data set is pSYK peptide (Homo sapiens) (UniProt P43405). The note with it: cited from earlier work.

On to CBL TKBD (from UniProt P22681), for which the Kd is 1480 nM.
